Assay: label from the status in PepcDB records

Sequence	protein production
SGESIPLAAPVPVEQAVLETFFSHLGIFSYDKAKDNVEKEREANKSAGGSWLSLLAALAHLAAAEKVYHSLTYLGQKLGGQSFFSRKDSIRTIYTSLHNELKKVVAGRGAPGGTAPHVEELLPHLSEQLCFFVQARMEIADFYEKMYALSTQKFINTEELVSTLDTILRKYSSRFHHPILSPLESSFQLEVGVLSHLLKAQAQISEWKFLPSLVTLHNAHTKLQSWGQTFEKQRETKKHLFGGQSQKAVQPPHLFLWLMKLKTMLLAKFSFYFHEALSRQTTASEMKALTAKANPDLFGKISSFIRKYDAANVSLIFDNRGSESFQGHGYHHPHSYREAPKGVDQYPAVVSLPSDRPVMHWPNVIMIMTDRASDLNSLEKVVHFYDDKVQSTYFLTRPEPHFTIVVIFESKKSERDSHFISFLNELSLALKNPKVFASLKPGSKG	not failed
SDPLYVPDPDPTKFPVNRNLTRKAGYLNARNKTGLVSSTWDRQFYFTQGGNLMSQARGDVAGGLAMDIDNCSVMAVDCEDRRYCFQITSFDGKKSSILQAESKKDHEEWICTINNISKQIYLSENPEETAARVNQSALEAVTPSPSFQQRHESLRPAAGQSRPPTART	failed
MVRISNMQFEVIENVKDGWNEEAFVERYSDVLNKYDYIVGDWGYNQLRLRGFFDDQNKKSTYDKKISTLQDYLYEYCNFGCAYFVVKRVKTESLEHHHHHH	failed
MDPLALLRKAGLEAEGPALPLHGGDISRVWRVGRFVVKTAQDPPPGLFRAEARGLQALAERGVRVPQVHWVGEEGLVLAYLEPGPEDWEGLARTLAALHRRREGSYLAEPGFLGTFPLPGREGGEWTAFFYERCVLPLLEATWDRLQGLGPKVEALYRRPLPAEGPAPLHGDLWHGNVYFAREGPALLDPSFFVGERGVDLAMMRLFGGFPRRFWEVYGELYPVPEEVERALPRYQVYYLLAHVHFFGQGYLGALWRAISAS	failed
MAASSACLVGNGLSVNTTTKQRLSKHFSGRQTSFSSVIRTSKVNVVKASLDGKKKQEGRRDFLKILLGNAGVGLVASGKANADEQGVSSSRMSYSRFLEYLDKDRVNKVDLYENGTIAIVEAVSPELGNRVERVRVQLPGLSQELLQKLRAKNIDFAAHNAQEDQGSVLFNLIGNLAFPALLIGGLFLLSRRSGGGMGGPGGPGNPLQFGQSKAKFQMEPNTGVTFDDVAGVDEAKQDFMEVVEFLKKPERFTAVGAKIPKGVLLIGPPGTGKTLLAKAIAGEAGVPFFSISGSEFVEMFVGVGASRVRDLFKKAKENAPCIVFVDEIDAVGRQRGTGIGGGNDEREQTLNQLLTEMDGFEGNTGVIVVAATNRADILDSALLRPGRFDRQVSVDVPDVKGRTDILKVHAGNKKFDNDVSLEIIAMRTPGFSGADLANLLNEAAILAGRRARTSISSKEIDDSIDRIVAGMEGTVMTDGKSKSLVAYHEVGHAVCGTLTPGHDAVQKVTLIPRGQARGLTWFIPSDDPTLISKQQLFARIVGGLGGRAAEEIIFGDSEVTTGAVGDLQQITGLARQMVTTFGMSDIGPWSLMDSSAQSDVIMRMMARNSMSEKLAEDIDSAVKKLSDSAYEIALSHIKNNREAMDKLVEVLLEKETIGGDEFRAILSEFTEIPPENRVPSSTTTTPASAPTPAAV	not failed
MKYKAAIFDMDGTILDTSADLTSALNYAFEQTGHRHDFTVEDIKNFFGSGVVVAVTRALAYEAGSSRESLVAFGTKDEQIPEAVTQTEVNRVLEVFKPYYADHCQIKTGPFPGILDLMKNLRQKGVKLAVVSNKPNEAVQVLVEELFPGSFDFALGEKSGIRRKPAPDMTSECVKVLGVPRDKCVYIGDSEIDIQTARNSEMDEIAVNWGFRSVPFLQKHGATVIVDTAEKLEEAILGE	not failed
MDSDFHVKPEIRILGIDDSALLNEKVMIVGTVFRGGDWIDGVLRSEITRDGLDATEVMVTMIKNSRHHNQLRVIMLDGITYGGFNVVDIEELYRETGLPVIVIMRSCPDFEKIRSALKHFSDGEERWKIIKKAGKIEKLITGRNGTPIYIQKAGIGAKNVEKIIRLTSIRSSIPEPLRVAHLIATGITLGESRGKA	failed
MNLQNWKLSEYVCAVENLSYTEFFRIIEYANDAGIPVNFVTNGTLITEEFVKKLSELNIGSVQVSLDGSKPEIMDRLRGNGIFHRAINSIKRLIDYGINTSVAFCATRINIRDFPNVVELASKLGVFEVRSMYFVPETEAHIKLAPSESQYKELLQWIYDN	failed
MDSASQDINLNSPNKGVLSDFMTDVPVDPGVVHRTPVVEGLTEGEEEELRAELAKVEEEIVTLRQVLAAKERHCGELKRRLGLSTLGELKQNLSRSWHDVQVSTAYVKTSEKLGEWNEKVTQSDLYKKTQETLSQAGQKTSAALSTMGSAISRKLGDMSSYSIRHSISMPVMRNSATFKSFEDRVGTIKSKVVGGRENGSDNLPPSPGSGDQTLPDHAPF	failed
AYPDFAPQKFKEKTQGQVKILEDSFLKSSFPTQAELDRLRVETKLSRREIDSWFSERRKLRDSMEQAVLDSMGSGK	not failed
MLFTPEGTPMARRLEDARILMYSHDTFGLGHLRRCRAIAHALVEDYRGLNILIISGATIAGAFDYRARVDFVKIPSVIKLRNGEYTSLASHIDLHETLKMRESSIRHTAETFQPDIFIVDKEPMGLKGEVEDTLAYLKARGTVLVLGLREIMDAPHLLDAEWKRNGIMQKIDQYYDSVWVYGPPDFYDPLIGLDVPVSLRRKMDFVGFLQRSVSKGKTSIHARKDNYLLVTTGGGGDGSDLVHDVMNAYEADPTLTQKALVVLGPYMPAAERAKLVQKGEAIPYIEVIEFDNHMEELIDGATGVVAMGGYNTYCEILSFDKPALIVPRVKPREEQLLRAKRASELGLVDMLLPEQSVDPAIMAAALKRLPSRLPPSKSGSNMHLEGLDHISQTVGRWLDGRATHLAVVGAE	failed
MEKGVGFEKDMKTVSDGFVGGFFPVSTTKIAWKSRKRSALLNLDKAPEAVTEVTPEKNEITAMDTEKVGEPMTTTPLLSEKRKALFEPLEPITNLNGKRPTAADSLLPPPDFETANYPKGWLIGKKRKLVNVDVVESMRRIAVQEMNRKDREIDGLNEQLEEDSRCLEHLQLQLLQERSKRTEIERENTMLKEQVDMLVNMIQEDDEEGAEEP	failed
DRAVKEFEANGGSSAANGGGAKKRAKPAKKVAKKSKKEESDEDDDDESE	failed
MKQHILVLEDANQRRTIILDEQQYSIGRHSGTSIQIHSRQASRHHATLMRKTNSKTNEECFWIIDGDLEGNKSQNGVFVNGEKRLIHELKNGDLINFGCSINASYHVTGEGFGESSSQPVEILPQTSPYNEAVSAQIASSYNTREGVDLLAGSNDETFHEQSYLDTATDLPNQTLFLEYLNIALSNARRHHAQVGVLLCQINNWSDLKRKRGDAVANAFLQEAGQKLKSNLRNGDIVSRWDKDEFIFLVSKVQDTSSLLGIAQRLMKPVLAPVTAGGRPFQPEITYGVALYPVDGEQVNDLIGHIRENLQQLLPQPTNPGSGEADDHIETAVDVRIGAPQPVPGLSDSDQKRLAIVEKRLLRALEQHELELYYQPQINWRKKTIEAMEAFIRWQHPQKGLLPPGQFLPWSDQTEFMVPLTRWILETACQQNVLWQQQLQTPFLVSVNISEKQFYHPLLKNMVMEAIAMAKMETHYLELEIQESTVMKDFGLAQQIITNLHNYGVGFSLDDFGTDYMSLRCLQDLPFQKLKIDKSLTAQLLEQTDNVPNLTMMETLINLGKTFNLKVVAEGVEQEEQINILDSLNCFFMQGYCFSEPLNILAANSFLHKYIAGN	failed
MPMNISNTKERILAVAEALIQKDGYNAFSFKDIATAINIKTASIHYHFPSKEDLGVAVISWHTDKIAAVLSDISNNSSLSAKEKIQKFFDAILTLTYNSENKMCLGGMFASDFQSLPVSIQNQAKKFFELIIEWLKGVLETNGYDNESSLSLAKQIISLVEGGLLLARLYGDETFLEGVRHFIDQTIK	not failed
MRIDVESQNINVTSLKEAPIHLSGQIQPHGVLLVLEEPGLKILQVSNNTWGILGINAENILQKKLEDLLDSFQIERIQSGLSSGNLEFINPTKIWIRKKGDDYAVFDAVFHRNTEGFLILELEPAITQENIPFLSFYHLAKASINQLQKTANLRDFCQIIVQEVRKVTDFDRVMLYKFDDDGHGSVIAEEKLDSLEPYLGLHYPESDIPKPARKLFISNSIRVIPNAQAQAIQMIPALNPVSDRPVDLTNSILRSAANCHLEYLHNMGVGASLTISLIKDNKLWGLIACHHLSAKYVSYELRKACEFLGRVIFAEISAREETEDYDYRMNLTHIQSLLVEYMSQEDNFVDGLIKHQPSLLDLTSAQGAAVCFGDHCTLIGETPKAEDLVFLVQWLKNNVEEEVFYTDSLPQVYPDAERYKNVASGLLAIPISQRNYVLWFRPEVIQTVNWGGDPNQPFEVNKLDGNVRLCPRKSFELWKETVRLTSLPWRYVEIRAALELRKAIVNIVLRQADELAQLAHDLERSNAELKKFAYVASHDLQEPLNQVANYVQLLEMRYQDQLDADANEFITFAVEGVSLMQTLIDDVLAYSKVDTQAIAFQLTEVEKALDKALGNLRQRIAETGANITHDPLPTVMAGSTQLMQLFQNLIANAIKFRSEEAPQIHIGAERLEDEWLFSVRDNGIGIDPQFSDRIFVIFQRLHTRDEYHGTGMGLAICKKIIECHRGRIWVESQLGEGATFYFTIPVGGRERERRNGRKTQNNLFS	failed
MKQKELWINQIKGLCICLVVIYHSVITFYPHLTTFQHPLSEVLSKCWIYFNLYLAPFRMPVFFFISGYLIRRYIDSVPWGNCLDKRIWNIFWVLALWGVVQWLALSALNQWLAPERDLSNASNAAYADSTGEFLHGMITASTSLWYLYALIVYFVVCKIFSRLALPLFALFVLLSVAVNFVPTPWWGMNSVIRNLPYYSLGAWFGATIMTCVKEVPLRRHLLMASLLTVLAVGAWLFTISLLLSLVSIVVIMKLFYQYEQRFGMRSTSLLNVIGSNTIAIYTTHRILVEIFSLTLLAQMNAARWSPQVELTLLLVYPFVSLFICTVAGLLVRKLSQRAFSDLLFSPPSLPAAVSYSR	failed
MSAPRLPVTVLTGFLGAGKTTLLSKLLENNKQRRLAILVNEFGEVSIDGGLLRDGENQGVEIHDLANGLVAYDDDADFLPTMLALWQRRQQIDHVLIETSGLALPSAVMAQLQSEALAPYFVLDATLAVVDTPLLLAGHFAPAGDGGKTDAVAALFDQQLGHADIVVLNKIDALSADQLLAAEEAVRKQAPSIRFIELAYEAKLDTRLTLGLHLHEASPAAHRHYGPVASMPGLAMRPLANQTLLDGHSHGGQAAHSHGLATHKHFHEQDPGWQSFMIRSKEPQCADKLAAALQAIAREEPLLRIKGFAACADSPGRLLAQGVRSRIELSRDDTLAAPRQAQLVFIGYHPSRPRVVALLRDITGAHWSLEHHHHHH	failed
MSRMMKMGTGTLRVILWFASILIWFSIFVPIEYLVNYFSGETTNYILHSDDFMMPIKTHVASTNAIASFPSGLYTTLMIIGYILMLVGVFITIQAVSAIVRHIQEQDYFSTENSQQMNRIVKGQIWILGSSLLMACANQLTVSWLYRISQFGLGWDNLLSAFVDLIIFALIAMIYTRAVNMKTESDLTI	failed

— a protein production outcome set (Wang et al. 2014)
